Experimental data published in publication PMC10302205, “Saccharomyces cerevisiae Δ9-desaturase Ole1 forms a supercomplex with Slc1 and Dga1” (The Journal of Biological Chemistry, 2023).

T1: Ole1-Myc-Cub-LexA-VP16 (S. cerevisiae, UniProt P21147 1-510)
T1 construct: Ole1, Δ9 acyl-CoA (stearoyl-CoA) desaturase of S. cerevisiae; the endogenous chromosomal OLE1 gene, with the tag at its carboxyl end; The tag was put behind the chromosomal gene, so the whole protein is likely; also called Δ9 acyl-CoA desaturase Ole1; Ole1-Cub-LexA-VP16; not shown: Myc, C-terminal, kept; Cub-LexA-VP16, C-terminal, kept
T1 sequence (looked up): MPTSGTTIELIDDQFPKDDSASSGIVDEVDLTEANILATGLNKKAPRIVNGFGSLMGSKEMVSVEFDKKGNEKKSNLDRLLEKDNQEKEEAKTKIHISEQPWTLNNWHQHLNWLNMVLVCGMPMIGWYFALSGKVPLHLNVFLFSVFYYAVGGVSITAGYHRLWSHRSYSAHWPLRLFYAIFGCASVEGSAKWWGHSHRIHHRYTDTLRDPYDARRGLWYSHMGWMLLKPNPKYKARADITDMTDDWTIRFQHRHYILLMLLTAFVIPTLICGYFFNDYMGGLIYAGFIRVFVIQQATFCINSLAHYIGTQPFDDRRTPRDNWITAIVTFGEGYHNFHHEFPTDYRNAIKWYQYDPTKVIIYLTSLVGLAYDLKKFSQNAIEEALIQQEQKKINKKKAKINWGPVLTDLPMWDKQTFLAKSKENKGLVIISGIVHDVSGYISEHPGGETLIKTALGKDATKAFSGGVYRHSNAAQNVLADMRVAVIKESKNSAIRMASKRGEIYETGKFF

T2: Slc1-Cub-LexA-VP16 (S. cerevisiae, UniProt P33333 1-303)
T2 construct: Slc1, lysophosphatidic acid acyltransferase of S. cerevisiae; The end of the tag is read from the order of the printed label; also called Slc1 bait (strain YBG2); pTMBV4-SLC1; not shown: Cub-LexA-VP16, C-terminal, kept
T2 sequence (looked up): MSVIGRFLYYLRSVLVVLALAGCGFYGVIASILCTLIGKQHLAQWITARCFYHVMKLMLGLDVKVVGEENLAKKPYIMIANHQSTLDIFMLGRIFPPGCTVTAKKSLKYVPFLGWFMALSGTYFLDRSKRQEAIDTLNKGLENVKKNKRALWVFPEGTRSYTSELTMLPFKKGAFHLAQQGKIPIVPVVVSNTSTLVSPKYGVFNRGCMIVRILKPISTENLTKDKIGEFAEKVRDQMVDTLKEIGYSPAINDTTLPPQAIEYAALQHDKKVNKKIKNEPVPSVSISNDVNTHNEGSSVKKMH


Columns and labels:
Ole1-Myc-Cub-LexA-VP16 = target: T1, Ole1-Myc-Cub-LexA-VP16; test: two-hybrid; integrated membrane yeast two-hybrid (split ubiquitin): Ole1-Myc-Cub-LexA-VP16 from the endogenous locus of strain YBG1 as bait, NubG fusions from plasmids as prey; growth on SD-W-H-A with 6 mM 3-aminotriazole and β-galactosidase activity of cell extracts
Slc1-Cub-LexA-VP16 = target: T2, Slc1-Cub-LexA-VP16; test: two-hybrid; membrane yeast two-hybrid (split ubiquitin): plasmid-borne Slc1-Cub-LexA-VP16 as bait and NubG fusions as prey in NMY51; growth on SD-W-L-H-A with 6 mM 3-aminotriazole and β-galactosidase activity of cell extracts; conditions: partners not purified

β-galactosidase activity, fold over Alg5-NubG (Slc1-Cub-LexA-VP16) [fold over Alg5-NubG]	β-galactosidase activity, % of wildtype Dga1 (Ole1-Myc-Cub-LexA-VP16; partners not purified)	Binder	further results
17		NubG-Dga1 (full-length NubG-Dga1 fusion) (enzyme, S. cerevisiae, UniProt Q08650 1-418, looked up, Dga1, diacylglycerol acyltransferase of S. cerevisiae; DGA1 amplified from W303 genomic DNA; 418 residues by the printed ranges; also called pNubG-DGA1; pADSL-NubG-DGA1; source: yeast two-hybrid fusion (split ubiquitin prey), from plasmid pADSL-NubG-DGA1 in S. cerevisiae; not shown: NubG, N-terminal, kept) MSGTFNDIRRRKKEEGSPTAGITERHENKSLSSIDKREQTLKPQLESCCPLATPFERRLQTLAVAWHTSSFVLFSIFTLFAISTPALWVLAIPYMIYFFFDRSPATGEVVNRYSLRFRSLPIWKWYCDYFPISLIKTVNLKPTFTLSKNKRVNEKNYKIRLWPTKYSINLKSNSTIDYRNQECTGPTYLFGYHPHGIGALGAFGAFATEGCNYSKIFPGIPISLMTLVTQFHIPLYRDYLLALGISSVSRKNALRTLSKNQSICIVVGGARESLLSSTNGTQLILNKRKGFIKLAIQTGNINLVPVFAFGEVDCYNVLSTKKDSVLGKMQLWFKENFGFTIPIFYARGLFNYDFGLLPFRAPINVVVGRPIYVEKKITNPPDDVVNHFHDLYIAELKRLYYENREKYGVPDAELKIVG	β-galactosidase activity, fold over the negative control Alg5-NubG (fold over the negative control) (Ole1-Myc-Cub-LexA-VP16): 11
	~60 % of wildtype Dga1	NubG-Dga1DEK (Dga1 D411A, E413A, K415A) (enzyme, S. cerevisiae, UniProt Q08650 1-418, looked up, Dga1 of S. cerevisiae, charged-to-alanine mutant made in pADSL-NubG-DGA1 (the full-length fusion); source: yeast two-hybrid fusion (split ubiquitin prey), synthetic DNA fragment assembled into pADSL-NubG-DGA1, in S. cerevisiae; not shown: NubG, N-terminal, kept) MSGTFNDIRRRKKEEGSPTAGITERHENKSLSSIDKREQTLKPQLESCCPLATPFERRLQTLAVAWHTSSFVLFSIFTLFAISTPALWVLAIPYMIYFFFDRSPATGEVVNRYSLRFRSLPIWKWYCDYFPISLIKTVNLKPTFTLSKNKRVNEKNYKIRLWPTKYSINLKSNSTIDYRNQECTGPTYLFGYHPHGIGALGAFGAFATEGCNYSKIFPGIPISLMTLVTQFHIPLYRDYLLALGISSVSRKNALRTLSKNQSICIVVGGARESLLSSTNGTQLILNKRKGFIKLAIQTGNINLVPVFAFGEVDCYNVLSTKKDSVLGKMQLWFKENFGFTIPIFYARGLFNYDFGLLPFRAPINVVVGRPIYVEKKITNPPDDVVNHFHDLYIAELKRLYYENREKYGVPAAALAIVG	
	~60 % of wildtype Dga1	NubG-Dga1KR (Dga1 K397A, R398A) (enzyme, S. cerevisiae, UniProt Q08650 1-418, looked up, Dga1 of S. cerevisiae, charged-to-alanine mutant made in pADSL-NubG-DGA1 (the full-length fusion); source: yeast two-hybrid fusion (split ubiquitin prey), synthetic DNA fragment assembled into pADSL-NubG-DGA1, in S. cerevisiae; not shown: NubG, N-terminal, kept) MSGTFNDIRRRKKEEGSPTAGITERHENKSLSSIDKREQTLKPQLESCCPLATPFERRLQTLAVAWHTSSFVLFSIFTLFAISTPALWVLAIPYMIYFFFDRSPATGEVVNRYSLRFRSLPIWKWYCDYFPISLIKTVNLKPTFTLSKNKRVNEKNYKIRLWPTKYSINLKSNSTIDYRNQECTGPTYLFGYHPHGIGALGAFGAFATEGCNYSKIFPGIPISLMTLVTQFHIPLYRDYLLALGISSVSRKNALRTLSKNQSICIVVGGARESLLSSTNGTQLILNKRKGFIKLAIQTGNINLVPVFAFGEVDCYNVLSTKKDSVLGKMQLWFKENFGFTIPIFYARGLFNYDFGLLPFRAPINVVVGRPIYVEKKITNPPDDVVNHFHDLYIAELAALYYENREKYGVPDAELKIVG	
~10		NubG-Gpt2 (enzyme, S. cerevisiae, UniProt P36148 1-743, looked up, Gpt2, glycerophosphate acyltransferase of S. cerevisiae; also called pNubG-GPT2; pADSL-NubG-GPT2; source: yeast two-hybrid fusion (split ubiquitin prey), from plasmid pADSL-NubG-GPT2 in S. cerevisiae; not shown: NubG, N-terminal, kept) MSAPAADHNAAKPIPHVPQASRRYKNSYNGFVYNIHTWLYDVSVFLFNILFTIFFREIKVRGAYNVPEVGVPTILVCAPHANQFIDPALVMSQTRLLKTSAGKSRSRMPCFVTAESSFKKRFISFFGHAMGGIPVPRIQDNLKPVDENLEIYAPDLKNHPEIIKGRSKNPQTTPVNFTKRFSAKSLLGLPDYLSNAQIKEIPDDETIILSSPFRTSKSKVVELLTNGTNFKYAEKIDNTETFQSVFDHLHTKGCVGIFPEGGSHDRPSLLPIKAGVAIMALGAVAADPTMKVAVVPCGLHYFHRNKFRSRAVLEYGEPIVVDGKYGEMYKDSPRETVSKLLKKITNSLFSVTENAPDYDTLMVIQAARRLYQPVKVRLPLPAIVEINRRLLFGYSKFKDDPRIIHLKKLVYDYNRKLDSVGLKDHQVMQLKTTKLEALRCFVTLIVRLIKFSVFAILSLPGSILFTPIFIICRVYSEKKAKEGLKKSLVKIKGTDLLATWKLIVALILAPILYVTYSILLIILARKQHYCRIWVPSNNAFIQFVYFYALLVFTTYSSLKTGEIGVDLFKSLRPLFVSIVYPGKKIEEIQTTRKNLSLELTAVCNDLGPLVFPDYDKLATEIFSKRDGYDVSSDAESSISRMSVQSRSRSSSIHSIGSLASNALSRVNSRGSLTDIPIFSDAKQGQWKSEGETSEDEDEFDEKNPAIVQTARSSDLNKENSRNTNISSKIASLVRQKREHEKKE	
		NubG-Sct1 (enzyme, S. cerevisiae, UniProt P32784 1-759, looked up, Sct1, glycerophosphate acyltransferase of S. cerevisiae; also called pNubG-SCT1; pADSL-NubG-SCT1; source: yeast two-hybrid fusion (split ubiquitin prey), from plasmid pADSL-NubG-SCT1 in S. cerevisiae; not shown: NubG, N-terminal, kept) MPAPKLTEKFASSKSTQKTTNYSSIEAKSVKTSADQAYIYQEPSATKKILYSIATWLLYNIFHCFFREIRGRGSFKVPQQGPVIFVAAPHANQFVDPVILMGEVKKSVNRRVSFLIAESSLKQPPIGFLASFFMAIGVVRPQDNLKPAEGTIRVDPTDYKRVIGHDTHFLTDCMPKGLIGLPKSMGFGEIQSIESDTSLTLRKEFKMAKPEIKTALLTGTTYKYAAKVDQSCVYHRVFEHLAHNNCIGIFPEGGSHDRTNLLPLKAGVAIMALGCMDKHPDVNVKIVPCGMNYFHPHKFRSRAVVEFGDPIEIPKELVAKYHNPETNRDAVKELLDTISKGLQSVTVTCSDYETLMVVQTIRRLYMTQFSTKLPLPLIVEMNRRMVKGYEFYRNDPKIADLTKDIMAYNAALRHYNLPDHLVEEAKVNFAKNLGLVFFRSIGLCILFSLAMPGIIMFSPVFILAKRISQEKARTALSKSTVKIKANDVIATWKILIGMGFAPLLYIFWSVLITYYLRHKPWNKIYVFSGSYISCVIVTYSALIVGDIGMDGFKSLRPLVLSLTSPKGLQKLQKDRRNLAERIIEVVNNFGSELFPDFDSAALREEFDVIDEEEEDRKTSELNRRKMLRKQKIKRQEKDSSSPIISQRDNHDAYEHHNQDSDGVSLVNSDNSLSNIPLFSSTFHRKSESSLASTSVAPSSSSEFEVENEILEEKNGLASKIAQAVLNKRIGENTAREEEEEEEEEEEEEEEEEEGKEGDA	β-galactosidase activity, fold of the negative control Alg5-NubG (fold of the negative control) (Ole1-Myc-Cub-LexA-VP16): 2; β-galactosidase activity, fold of the negative control (Slc1-Cub-LexA-VP16): 3 fold of the negative control
		NubG-Slc1 (enzyme, S. cerevisiae, UniProt P33333 1-303, looked up, Slc1, lysophosphatidic acid acyltransferase of S. cerevisiae; 'the SLC1 open reading frame was amplified from S. cerevisiae genomic DNA'; also called pADSL-NubG-SLC1; source: yeast two-hybrid fusion (split ubiquitin prey), from plasmid pADSL-NubG-SLC1 in S. cerevisiae; not shown: NubG, N-terminal, kept) MSVIGRFLYYLRSVLVVLALAGCGFYGVIASILCTLIGKQHLAQWITARCFYHVMKLMLGLDVKVVGEENLAKKPYIMIANHQSTLDIFMLGRIFPPGCTVTAKKSLKYVPFLGWFMALSGTYFLDRSKRQEAIDTLNKGLENVKKNKRALWVFPEGTRSYTSELTMLPFKKGAFHLAQQGKIPIVPVVVSNTSTLVSPKYGVFNRGCMIVRILKPISTENLTKDKIGEFAEKVRDQMVDTLKEIGYSPAINDTTLPPQAIEYAALQHDKKVNKKIKNEPVPSVSISNDVNTHNEGSSVKKMH	β-galactosidase activity, fold over the negative control Alg5-NubG (Ole1-Myc-Cub-LexA-VP16; partners not purified): 9 fold over the negative control
